Reference: paper PMC4559421, “Interaction of Yna1 and Yna2 Is Required for Nuclear Accumulation and Transcriptional Activation of the Nitrate Assimilation Pathway in the Yeast Hansenula polymorpha”
Changes are numbered by the printed parent chain.

What was measured:
Conditions in all cases: protein: recombinant; tags: His; chain copies: 2; label: 32P end label
HIS-Yna2p(1-180) [1] = target: T1, HIS-Yna2p(1-180) (Hansenula polymorpha (syn. Pichia …, UniProt Q9HFM7 1-180)); test: EMSA; poly(dIdC); no detectable complex; EMSA: 75 ng protein in 10 ul KCl 1 mM, spermidine 80 mM (so in the source), 0.1 mg/ml poly(dIdC), on ice then 30 min at room temperature with probe; 6% PAGE, 50% glycerol, 0.5x TBE; pH not stated
T1 sequence: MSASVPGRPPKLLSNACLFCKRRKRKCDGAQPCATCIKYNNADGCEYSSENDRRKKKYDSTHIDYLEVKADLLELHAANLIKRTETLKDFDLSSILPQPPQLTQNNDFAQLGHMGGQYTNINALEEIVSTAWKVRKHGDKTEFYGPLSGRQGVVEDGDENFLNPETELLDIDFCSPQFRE

HIS-Yna1p(1-185) [2] = target: T2, HIS-Yna1p(1-185) (Hansenula polymorpha (syn. Pichia …, UniProt O93984 1-185)); test: EMSA; poly(dIdC); complex abrogated by 1x-2x unlabelled probe; less stable than with probe 1; EMSA: 75 ng protein in 10 ul KCl 1 mM, spermidine 80 mM (so in the source), 0.1 mg/ml poly(dIdC), on ice then 30 min at room temperature with probe; 6% PAGE, 50% glycerol, 0.5x TBE; pH not stated
T2 sequence: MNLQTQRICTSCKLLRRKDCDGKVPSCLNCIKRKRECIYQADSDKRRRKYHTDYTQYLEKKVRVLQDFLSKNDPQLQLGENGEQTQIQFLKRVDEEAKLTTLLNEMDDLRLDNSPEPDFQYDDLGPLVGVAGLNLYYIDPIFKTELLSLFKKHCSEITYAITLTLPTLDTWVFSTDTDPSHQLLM

HIS-Yna1p(1-185) [3] = target: T2, HIS-Yna1p(1-185); test: EMSA; poly(dIdC); binding disrupted; EMSA: 75 ng protein in 10 ul KCl 1 mM, spermidine 80 mM (so in the source), 0.1 mg/ml poly(dIdC), on ice then 30 min at room temperature with probe; 6% PAGE, 50% glycerol, 0.5x TBE; pH not stated
HIS-Yna1p(1-185) [4] = target: T2, HIS-Yna1p(1-185); test: EMSA; poly(dIdC); complex formation disrupted; EMSA: 75 ng protein in 10 ul KCl 1 mM, spermidine 80 mM (so in the source), 0.1 mg/ml poly(dIdC), on ice then 30 min at room temperature with probe; 6% PAGE, 50% glycerol, 0.5x TBE; pH not stated
HIS-Yna1p(1-185) [5] = target: T2, HIS-Yna1p(1-185); test: EMSA; poly(dIdC); complex diminished by 1x-2x unlabelled probe; EMSA: 75 ng protein in 10 ul KCl 1 mM, spermidine 80 mM (so in the source), 0.1 mg/ml poly(dIdC), on ice then 30 min at room temperature with probe; 6% PAGE, 50% glycerol, 0.5x TBE; pH not stated
HIS-Yna2p(1-180) [6] = target: T1, HIS-Yna2p(1-180); test: EMSA; poly(dIdC); EMSA: 75 ng protein in 10 ul KCl 1 mM, spermidine 80 mM (so in the source), 0.1 mg/ml poly(dIdC), on ice then 30 min at room temperature with probe; 6% PAGE, 50% glycerol, 0.5x TBE; pH not stated

B1: YNT1 probe 2 (dsDNA)
DNA 1: GGCTAGCATCCCGCTCATCGGAGAATATTCTGC
DNA 2: GCAGAATATTCTCCGATGAGCGGGATGCTAGCC
**Q.** What does the source list for B1?
**A.** binding result (HIS-Yna2p(1-180) [1]): no binding; binding result (HIS-Yna1p(1-185) [2]): binds

B2: YNT1 probe 2 m2 (dsDNA)
DNA 1: B1 DNA 1 with C19A, G20T, G21T
DNA 2: B1 DNA 2 with C13A, C14A, G15T
**Q.** Does B2 bind (HIS-Yna1p(1-185) [3])?
**A.** no binding

B3: YNT1 probe 2 m1 (dsDNA)
DNA 1: B1 DNA 1 with C11A, C12A, G13T
DNA 2: B1 DNA 2 with C21A, G22T, G23T
**Q.** Does B3 bind (HIS-Yna1p(1-185) [4])?
**A.** no binding

B4: YNT1 probe 1 (dsDNA)
DNA 1: CCCGCTCATCGGAGAATATTCTGCTCAAAATTAAGGATGCCCAT
DNA 2: ATGGGCATCCTTAATTTTGAGCAGAATATTCTCCGATGAGCGGG
**Q.** Does B4 bind (HIS-Yna1p(1-185) [5])?
**A.** binds

**Q.** Does B4 bind (HIS-Yna2p(1-180) [6])?
**A.** binds
